Results taken from paper PMC4390766.
Read-outs that look alike come from different tables or passages of the source.

Tests used:
β-catenin [1] = target: β-catenin (UniProt P35222); settings: cited from earlier work
β-catenin [2] = target: β-catenin (UniProt P35222); settings: cited from earlier work; remark: listed apart in the source
[3] = target: HMP-2_(54arm) (C. elegans) (UniProt O44326); assay: ITC
[4] = target: HMP-2_(54end) (C. elegans) (UniProt O44326); assay: ITC

Chain of UniProt P35222 (P35222 2-781): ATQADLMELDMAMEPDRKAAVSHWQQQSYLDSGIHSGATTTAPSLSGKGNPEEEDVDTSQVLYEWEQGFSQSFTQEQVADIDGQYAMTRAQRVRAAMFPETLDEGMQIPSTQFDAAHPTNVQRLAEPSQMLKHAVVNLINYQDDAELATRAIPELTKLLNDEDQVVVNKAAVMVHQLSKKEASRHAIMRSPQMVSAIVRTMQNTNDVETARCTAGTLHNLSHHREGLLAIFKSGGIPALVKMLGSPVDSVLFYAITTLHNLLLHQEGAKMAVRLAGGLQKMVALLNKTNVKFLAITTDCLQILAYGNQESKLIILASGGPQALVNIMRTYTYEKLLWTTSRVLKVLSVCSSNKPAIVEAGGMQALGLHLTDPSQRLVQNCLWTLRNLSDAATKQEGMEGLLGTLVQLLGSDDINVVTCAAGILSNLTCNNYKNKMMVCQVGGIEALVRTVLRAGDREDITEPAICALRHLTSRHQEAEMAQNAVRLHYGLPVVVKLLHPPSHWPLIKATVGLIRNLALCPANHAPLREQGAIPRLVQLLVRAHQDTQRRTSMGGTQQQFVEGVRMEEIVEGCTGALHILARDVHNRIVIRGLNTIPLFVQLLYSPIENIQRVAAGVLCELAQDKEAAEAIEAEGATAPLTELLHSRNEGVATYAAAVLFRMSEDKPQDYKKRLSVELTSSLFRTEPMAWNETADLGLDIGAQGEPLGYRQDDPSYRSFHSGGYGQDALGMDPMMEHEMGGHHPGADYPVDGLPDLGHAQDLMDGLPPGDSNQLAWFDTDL

| Substance | Kd [3] | Kd [4] | Kd (β-catenin [1]) | Kd (β-catenin [2]) |
| --- | --- | --- | --- | --- |
| E-cadherin cytoplasmic domain (from UniProt P12830) |  |  | 0.052 nM | 46 nM |
| HMR-1_(cyto80) (domain or fragment) | 380 nM |  |  |  |
| HMR-1(T1215A)_(cyto80), non-phosphorylated (domain or fragment) | 610 nM |  |  |  |

More lines, in order of falling Kd [3], values ahead:

| Kd [3] | Kd [4] | Substance | Kd (β-catenin [1]) | Kd (β-catenin [2]) |
| --- | --- | --- | --- | --- |
| 26 nM |  | pHMR-1(T1215A)_(cyto80) (domain or fragment) |  |  |
| 3.1 nM | 23 nM | pHMR-1_(cyto80) (domain or fragment) |  |  |
